From article PMC3240612, “Quantitative Multicolor Super-Resolution Microscopy Reveals Tetherin HIV-1 Interaction” (PLoS Pathogens, 2011)

Key:
[1] = biological target: the molecule itself; test: non-reducing against reducing SDS-PAGE with Western blot; virions stripped from 293T cells by subtilisin A (0, 5 or 50 µg/ML), pelleted through sucrose, lysed in RIPA; anti-HA blot without βME and with βME
[2] = biological target: T1, HA-tetherin (N-terminal HA-tagged tetherin), in virions released by PI-PLC (human), Q10589; conditions: remark: other sources report otherwise
T1 chain: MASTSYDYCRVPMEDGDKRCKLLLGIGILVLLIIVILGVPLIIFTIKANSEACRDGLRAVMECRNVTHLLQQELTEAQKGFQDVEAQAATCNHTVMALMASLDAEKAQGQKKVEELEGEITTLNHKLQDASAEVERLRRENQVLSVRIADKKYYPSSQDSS

[3] = biological target: T2, tetherin-HA (HA tag inserted after the extracellular coiled-coil domain), in virions released by PI-PLC (human), Q10589; conditions: remark: other sources report otherwise
T2 chain: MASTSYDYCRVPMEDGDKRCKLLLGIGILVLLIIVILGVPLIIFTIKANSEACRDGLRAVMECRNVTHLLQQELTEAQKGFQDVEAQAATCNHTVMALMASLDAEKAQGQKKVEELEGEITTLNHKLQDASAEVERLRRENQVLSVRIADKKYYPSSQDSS

B1: N-terminal fragment of HA-tetherin left inside virions after subtilisin A treatment (domain or fragment, human, UniProt Q10589 1-67, looked up)
chain: MASTSYDYCRVPMEDGDKRCKLLLGIGILVLLIIVILGVPLIIFTIKANSEACRDGLRAVMECRNVT
notes: tetherin (CD317, BST-2, HM1.24), human, Swiss-Prot Q10589; N-terminal fragment left after subtilisin A cleavage; Disulfide-linked dimer: ~26 kDa without βME, ~13 kDa with βME; also called dimeric N-termini; HA fragment of ~26 kDa (non-reducing), ~13 kDa (reducing); source: 293T, transfected with HIV-1 Δvpu and HA-tetherin; cells treated with subtilisin A; released virions pelleted through sucrose …
**Q.** For B1, which “stoichiometry N” value [1] is on record?
**A.** 2

B2: HA-tetherin (N-terminal HA-tagged tetherin), in virions released by PI-PLC, Q10589 1-161 (natural protein)
chain: MASTSYDYCRVPMEDGDKRCKLLLGIGILVLLIIVILGVPLIIFTIKANSEACRDGLRAVMECRNVTHLLQQELTEAQKGFQDVEAQAATCNHTVMALMASLDAEKAQGQKKVEELEGEITTLNHKLQDASAEVERLRRENQVLSVRIADKKYYPSSQDSS
modifications: here or on the partner: C-terminal GPI anchor, cut by PI-PLC; C-terminal GPI anchor, cut by PI-PLC
**Q.** With B2 as the binder, how does the stoichiometry N [2] read?
**A.** 2

B3: tetherin-HA (HA tag inserted after the extracellular coiled-coil domain), in virions released by PI-PLC, Q10589 1-161 (natural protein)
chain: MASTSYDYCRVPMEDGDKRCKLLLGIGILVLLIIVILGVPLIIFTIKANSEACRDGLRAVMECRNVTHLLQQELTEAQKGFQDVEAQAATCNHTVMALMASLDAEKAQGQKKVEELEGEITTLNHKLQDASAEVERLRRENQVLSVRIADKKYYPSSQDSS
modifications: here or on the partner: C-terminal GPI anchor, cut by PI-PLC; C-terminal GPI anchor, cut by PI-PLC
**Q.** For B3, which stoichiometry N [3] is on record?
**A.** 2
